Measured values reported in the Immune Epitope Database (IEDB).
Each block holds one sequence with its values, some of them ahead of it.

What was measured:
HLA-A*31:01 [1] = assay: IEDB peptide-MHC binding, purified MHC/competitive/fluorescence; filed as Kd, often an IC50 or EC50 that approximates it; ≥ and ≤ were set here for values at or beyond the usual limits of such assays
HLA-A*03:01 [2] = assay: IEDB peptide-MHC binding, purified MHC/direct/fluorescence; filed as Kd, often an IC50 or EC50 that approximates it; ≥ and ≤ were set here for values at or beyond the usual limits of such assays
HLA-A*11:01 [3] = assay: as above
HLA-A*01:01 = assay: as above
HLA-A*29:02 [4] = assay: as above
HLA-B*27:05 = assay: as above
HLA-B*58:01 = assay: as above
HLA-B*46:01 [5] = assay: as above
HLA-B*18:01 [6] = assay: as above
HLA-B*57:01 [7] = assay: as above
HLA-B*08:01 = assay: as above; settings: source organism: West Nile virus
HLA-A*69:01 [8] = assay: as above
HLA-B*08:02 = assay: as above; settings: source organism: West Nile virus strain PTRoxo
HLA-B*07:02 = assay: as above
HLA-A*31:01 [9] = assay: as above
HLA-B*51:01 = assay: IEDB peptide-MHC binding, purified MHC/competitive/fluorescence; filed as Kd, often an IC50 or EC50 that approximates it; ≥ and ≤ were set here for values at or beyond the usual limits of such assays
HLA-A*03:01 [10] = assay: as above
HLA-A*24:03 = assay: as above
HLA-B*27:03 = assay: as above
HLA-A*29:02 [11] = assay: as above
HLA-A*02:01 [12] = assay: as above
HLA-B*39:01 [13] = assay: as above
HLA-B*46:01 [14] = assay: as above; settings: source organism: Bos taurus
HLA-B*18:01 [15] = assay: as above
HLA-B*57:01 [16] = assay: as above
HLA-A*69:01 [17] = assay: as above; settings: source organism: Bos taurus
HLA-B*15:17 = assay: as above
HLA-A*26:01 = assay: as above
HLA-A*68:02 = assay: as above; settings: source organism: Bos taurus
HLA-A*11:01 [18] = assay: IEDB peptide-MHC binding, purified MHC/competitive/fluorescence; ≥ and ≤ were set here for values at or beyond the usual limits of such assays
HLA-A*02:01 [19] = assay: as above
HLA-B*15:01 [20] = assay: as above
HLA-B*15:03 = assay: IEDB peptide-MHC binding, purified MHC/competitive/radioactivity; filed as Kd, often an IC50 or EC50 that approximates it; ≥ and ≤ were set here for values at or beyond the usual limits of such assays; settings: source organism: Vaccinia virus WR
HLA-A*02:01 [21] = assay: IEDB peptide-MHC binding, purified MHC/direct/fluorescence; filed as Kd, often an IC50 or EC50 that approximates it; ≥ and ≤ were set here for values at or beyond the usual limits of such assays
HLA-B*15:01 [22] = assay: as above
HLA-A*24:02 = assay: IEDB peptide-MHC binding, purified MHC/competitive/fluorescence; ≥ and ≤ were set here for values at or beyond the usual limits of such assays
HLA-A*02:19 = assay: IEDB peptide-MHC binding, purified MHC/direct/fluorescence; filed as Kd, often an IC50 or EC50 that approximates it; ≥ and ≤ were set here for values at or beyond the usual limits of such assays; settings: source organism: Salmonella enterica subsp. enterica serovar Typhimurium
HLA-B*44:02 = assay: as above
HLA-B*39:01 [23] = assay: as above
[24] = source organism: Influenza A virus (A/chicken/Viet Nam/DT-015/2004(H5N1))
[25] = source organism: West Nile virus
[26] = source organism: Vaccinia virus
[27] = source organism: Sudan ebolavirus
[28] = source organism: Salmonella enterica subsp. enterica serovar Typhimurium
[29] = source organism: Mycobacterium tuberculosis
[30] = source organism: Ephydatia fluviatilis
[31] = source organism: Vaccinia virus Copenhagen
[32] = source organism: Tai Forest ebolavirus
[33] = source organism: Tai Forest virus - Cote d'Ivoire, Cote d'Ivoire, 1994

Sequence: GIPLYDAIK
Kd (HLA-A*31:01 [1]; source organism: Influenza A virus (A/X-31(H3N2))): ≥ 20 µM
Kd (HLA-A*03:01 [2]; [24]): ≥ 20 µM
Kd (HLA-A*11:01 [3]; [24]): 7.78 µM

Sequence: ESSINISGY
Kd (HLA-A*01:01; source organism: Mammarenavirus juninense): 0.346 µM
Kd (HLA-A*29:02 [4]; source organism: Mammarenavirus machupoense): 0.23 µM

Sequence: GMSWITQGL
Kd (HLA-B*27:05; [25]): ≥ 20 µM
Kd (HLA-A*03:01 [2]; [25]): ≥ 20 µM
Kd (HLA-A*01:01; [25]): ≥ 20 µM
Kd (HLA-A*11:01 [3]; [25]): ≥ 20 µM
Kd (HLA-A*29:02 [4]; [25]): ≥ 20 µM
Kd (HLA-B*58:01; [25]): ≥ 20 µM
Kd (HLA-B*46:01 [5]; [25]): ≥ 20 µM
Kd (HLA-B*18:01 [6]; [25]): ≥ 20 µM
Kd (HLA-B*57:01 [7]; [25]): ≥ 20 µM
Kd (HLA-B*08:01): ≥ 20 µM
Kd (HLA-A*69:01 [8]; [25]): 1.33 µM
Kd (HLA-B*08:02): ≥ 20 µM
Kd (HLA-B*07:02; [25]): ≥ 20 µM
Kd (HLA-A*31:01 [9]; [25]): ≥ 20 µM

Kd (HLA-B*51:01; source organism: Bos taurus): ≥ 20 µM
Kd (HLA-A*03:01 [10]; source organism: Bos taurus): ≥ 20 µM
Kd (HLA-A*24:03; source organism: Bos taurus): ≥ 20 µM
Kd (HLA-B*27:03; source organism: Bos taurus): ≥ 20 µM
Kd (HLA-A*29:02 [11]; source organism: Bos taurus): ≥ 20 µM
Kd (HLA-A*02:01 [12]; source organism: Bos taurus): 0.0151 µM
Kd (HLA-B*39:01 [13]; source organism: Bos taurus): ≥ 20 µM
Kd (HLA-B*46:01 [14]): ≥ 20 µM
Kd (HLA-B*18:01 [15]; source organism: Bos taurus): ≥ 20 µM
Kd (HLA-B*57:01 [16]; source organism: Bos taurus): ≥ 20 µM
Kd (HLA-A*69:01 [17]): ≥ 20 µM
Kd (HLA-B*15:17; source organism: Bos taurus): ≥ 20 µM
Kd (HLA-A*26:01; source organism: Bos taurus): ≥ 20 µM
Kd (HLA-A*68:02): ≥ 20 µM
Sequence: KLGEGFKSL

Sequence: KQKMFSNNV
IC50 (HLA-A*11:01 [18]; [26]): ≥ 116 µM
IC50 (HLA-A*02:01 [19]; [26]): 7.07 µM
IC50 (HLA-B*15:01 [20]; [26]): 44.4 µM
Kd (HLA-B*15:03): 0.0193 µM

Sequence: ETFNTPAMY
Kd (HLA-A*03:01 [2]; source organism: Homo sapiens): 10.5 µM
Kd (HLA-A*01:01; source organism: Homo sapiens): 1.27 µM
Kd (HLA-A*11:01 [3]; source organism: Homo sapiens): ≥ 38.9 µM
Kd (HLA-A*29:02 [4]; source organism: Entamoeba histolytica HM-1:IMSS): 0.01 µM
Kd (HLA-A*02:01 [21]; source organism: Homo sapiens): ≥ 36.2 µM
Kd (HLA-B*15:01 [22]; source organism: Homo sapiens): 0.554 µM
Kd (HLA-A*69:01 [8]; source organism: Homo sapiens): 0.0596 µM

Sequence: VIILFQKAF
IC50 (HLA-A*02:01 [19]; [27]): ≥ 544 µM
IC50 (HLA-B*15:01 [20]; [27]): ≥ 143 µM
IC50 (HLA-A*24:02; [27]): 1.61 µM

Sequence: IWWEQYMQY
Kd (HLA-A*29:02 [11]; source organism: Shigella boydii): ≤ 0.0001 µM

Sequence: GVNACQVGV
Kd (HLA-B*58:01; [28]): 0.392 µM
Kd (HLA-A*02:01 [21]; [28]): 0.239 µM
Kd (HLA-A*02:19): 0.023 µM
Kd (HLA-A*69:01 [8]; [28]): 0.392 µM
Kd (HLA-A*31:01 [9]; [28]): 10.2 µM

Sequence: EKAAWGVAL
Kd (HLA-B*27:05; [29]): ≥ 20 µM
Kd (HLA-A*03:01 [2]; [29]): ≥ 20 µM
Kd (HLA-A*01:01; [29]): ≥ 20 µM
Kd (HLA-A*11:01 [3]; [29]): ≥ 20 µM
Kd (HLA-A*29:02 [4]; [29]): ≥ 20 µM
Kd (HLA-B*44:02; [29]): ≥ 20 µM
Kd (HLA-A*02:01 [21]; [29]): ≥ 20 µM
Kd (HLA-B*39:01 [23]; [29]): 0.052 µM
Kd (HLA-B*15:01 [22]; [29]): ≥ 20 µM
Kd (HLA-B*46:01 [5]; [29]): ≥ 20 µM
Kd (HLA-B*18:01 [6]; [29]): ≥ 20 µM
Kd (HLA-B*57:01 [7]; [29]): ≥ 20 µM
Kd (HLA-A*69:01 [8]; [29]): ≥ 20 µM
Kd (HLA-A*31:01 [9]; [29]): ≥ 20 µM

Kd (HLA-B*51:01; [30]): ≥ 20 µM
Kd (HLA-A*03:01 [10]; [30]): ≥ 20 µM
Kd (HLA-A*24:03; [30]): ≥ 20 µM
Kd (HLA-B*27:03; [30]): ≥ 20 µM
Kd (HLA-A*29:02 [11]; [30]): ≥ 20 µM
Kd (HLA-A*02:01 [12]; [30]): 0.041 µM
Kd (HLA-B*39:01 [13]; [30]): ≥ 20 µM
Kd (HLA-B*18:01 [15]; [30]): ≥ 20 µM
Kd (HLA-B*57:01 [16]; [30]): ≥ 20 µM
Kd (HLA-B*15:17; [30]): ≥ 20 µM
Kd (HLA-A*26:01; [30]): ≥ 20 µM
Sequence: TLKPGTMSV

Sequence: GSLFTEQAF
IC50 (HLA-B*15:01 [20]; source organism: Vaccinia virus WR): 5.94 µM

Sequence: KTFKDESIF
IC50 (HLA-A*11:01 [18]; [31]): 61 µM
IC50 (HLA-A*02:01 [19]; [31]): 66.8 µM
IC50 (HLA-B*15:01 [20]; [31]): 9.29 µM
IC50 (HLA-A*24:02; [31]): 24.2 µM

Sequence: KMFTFWYMR
Kd (HLA-A*31:01 [1]; source organism: Fowlpox virus): 0.00137 µM
Kd (HLA-A*03:01 [2]; source organism: Fowlpox virus): 0.387 µM
Kd (HLA-A*11:01 [3]; source organism: Fowlpox virus): 0.0063 µM

Sequence: YRKEQQNAV
Kd (HLA-B*39:01 [23]; source organism: Influenza A virus (A/Belfast/53582/2004(H3N?))): 0.62 µM

Sequence: FAEGVIAFL
Kd (HLA-B*27:03; [32]): ≥ 20 µM
Kd (HLA-B*18:01 [15]; [32]): ≥ 20 µM
Kd (HLA-A*26:01; [32]): ≥ 20 µM
Kd (HLA-B*27:05; [33]): ≥ 20 µM
Kd (HLA-A*03:01 [2]; [33]): ≥ 20 µM
Kd (HLA-A*01:01; [33]): ≥ 20 µM
Kd (HLA-A*11:01 [3]; [33]): ≥ 20 µM
Kd (HLA-B*44:02; [33]): ≥ 20 µM
Kd (HLA-B*58:01; [33]): ≥ 20 µM
Kd (HLA-B*39:01 [23]; [33]): 0.539 µM
Kd (HLA-B*15:01 [22]; [33]): ≥ 20 µM
Kd (HLA-B*46:01 [5]; [33]): ≥ 20 µM
Kd (HLA-B*57:01 [7]; [33]): ≥ 20 µM
Kd (HLA-B*07:02; [33]): ≥ 20 µM
Kd (HLA-A*31:01 [9]; [33]): ≥ 20 µM
